Laboratory results: the nanobody polyreactivity screen of Harvey et al. (2022)

assay: yeast display, Sf9 membrane polyspecificity reagent, FACS + sequencing; frameworks hold sequencing errors
Method in brief: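 Polyreactivity labels are assigned by the sorting gate from which each nanobody was recovered. The gates were low and high (top ~1%), set on anti-HA fluorescence for expression and streptavidin fluorescence for reagent binding. Before sorting, galactose-induced (36–48 hours) yeast display cells were stained for 1 hour at 4 °C with 10% biotinylated, detergent-solubilized Sf9 membrane reagent.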

Sequence	polyreactivity (PSR sort gate)
QVQLQESGGGLVQAGGSLRLSCAASGTISDSGLMGWYRQAPGKERELVAGISSGGITNYADSVKGRFTISRDNAKNTVYLQMKSLKPEDTAVYWGQGTQVTVSS	low polyreactivity
QVQLVESGGGLVQAGGSLRLSCAASGSTFRFNTMGWYRQAPGKERGLVACIAAGTTTNYADSVKGRFTISRDNAKNTVYLQMNSLKPEDAAVYYCAALNAFNTGHWYWGQGTQVTVSS	low polyreactivity
QVQLVESGGGLVQAGGSLRLSCAASGNTFYTNVMGWYRQAPGKERELVAAITQSGARTYYADSVKGRFTISRDNAKNTVYLQMNSLKPEDTAVYYCASEHYFYRDYPYEFWGQGTQVTVSS	high polyreactivity
QVQLVESGGGLVQAGGSLRLTCAASGRIFYHYAMGWYRQATGKERELVATISGAGSTHYADSVKGRFTISRDNAKNTVYLQMNSLKAEDTAVYYCNADTYLIRYWSMLEYWGQGTQVTVSS	low polyreactivity
QVQLVESGGGLVQAGGSLRLSCAASGFIFRAYAKRWYRPAPGKERELFAALTKRSGTTYSADSVKRRFTISRDNAKNTVYVQMNSLKPEDTAVYFCAAKTLYNSGTQDRAMGYWGQGTQVTVSS	high polyreactivity
QVQLVESGGGLVQAGGSLRLSCAASGFNFRFYAMGWYRQAPGKERELVAVITWSGGRTYYADSVKGRFTISRDNAKNTVYLQMNSLKPEDTAVYYCAAKRGKTYQRFDYWGQGTQVTVSS	high polyreactivity
QVQLVESGGGLVQAGGSLRLSCAAYGSTFVLYGMGWYRQAPGKEWELVAAISTSGGRTYYADSEKGRFTISRDNAKNSVSLQMNSLKPEDTAVYYCAALTYVAHYDEYWGQGTQVTVSS	low polyreactivity
QVQLVESGRGLVQAGGSLRLSCAASGRTFYSNTMGWSRQAPGKERELVAVISNGGSTYYADSVKGRFTISRDNAKYTVYLQMNSLKPEETAVYYCAARSRDRYRGNYWGQGTQVTVSS	high polyreactivity
QVQLVESGGGLVQAGGSLRLSCAASGYTFSYYAMGWYRQAPGKERELVAAITSTGSTYYADSVKGRFTISRDNAKNTDYFQMNSLKPEDTEVYYCNVDVATVGPVDYWGQGTQVTVSS	low polyreactivity
QVQLVESGGGLVQAGGSLRLSCAASGITFRQYAMGWYRQAPGKEREFVAAISWIGGSTYYADSVKGRFTISRDTAKNTVYLQMNSLKPEDTAVYYCAAETFTDYDYWGQGTQVTVSS	high polyreactivity
QVQLVESGGGLVQAGGSLRLTCAASGSTFRWYAMGWYRQAPAKERELVAAIRSAGSTDYADSVKGRFTISRDNAKNTVYLQINSLKPEDTAVYYCAAYFRYRSSRYGYWGQGTQVTVSS	high polyreactivity
QVQLVESGGGLVQAGGSLRLSCAASGSTFPPNAMGWSRQAPGKERELVAAISERGGSTYYADSVKGRFTISRDNAKNTVYLQMNSLKPEDTAVYYCAVDYYYLMYWGQGTQVTVSS	low polyreactivity
QVQLVESGGGLVQAGGSLRLSCAASGFIFRYYAMGLYRHAPGKERELVASISSGGSTDYADSVKGRFTISRDNAKNTVYLQMNSLKPEDTAVYYCAAGYRSLSLHVGSYRYYYRGQGTQVTVSS	high polyreactivity
QVQLVESGGGLVQAGGSLRLSCAATGIIFKRYTMGWYRQAPGKERELVATINSGTRTYADSVKGRFTISRDNAKNTVYLQMNSLKPEDTAVYYCARRGYYYDYWGLGTQVTVSS	high polyreactivity
QVQLVESGGGLVQAGGSLRLSCAASGFTFAYYAMGWYRQAPGKERELVAAITRGGGRTFYADSVKGRFTISRDNAKNTVYLQMNSLKPEDTAVYYCAREVYRHYAPVGYDYWGQGTQVTVSS	high polyreactivity
QVQLVESGGGLVKAGGRLRLSSAASGSIFASYSIGWYRQAPWKERELVAAITVRGGRTYYADSVKGRFTISRDNAKNTVYLQMNSLKPEDTAVYYCAAVGKNRSWYDYWGQGTQVTVSS	high polyreactivity
QVQLVESGGGLVQAGGSLRLSCASSGSTFHDYAMGWYRQAPGKERELVAAISNSGGSTYYADSVKGRFTISRDNAKNTVYLQMNSLKPEDTAVYYCAADGRWYWDYEYWGQGTQVTVSS	low polyreactivity
QVQLVESGGGLVQAGGSLRLSCAASGRTFRPYAMGWYRQAPGKERELVAAITSGVSTYYADSVKGRFTISRDNAKNTVYLQMNSLKPEDTAVYYCNKVISREVGIRMDYWGQGTQVTVSS	high polyreactivity
QVQLVESGGGLVQAGGSLRLSCAASGRIVNRYAMGWDRQAPVKERELVAAITYNGGSTYYADSVKGRFTISRDNAKNTVYLQMNSLKPVDTAVYYCNAVEVLDEGWGFWYYYWGQGTQVTVSS	high polyreactivity
QVQHVESRGGLVQAGGSLRLSCAASGIILSPYAMGWYRQAPGKERELVAAISRSGGSTYYADSVKGRFTISRDNAKNTVYLQMNSLKPEDTAVYYCAARYHVYSNYYKYDYCGQGTQVTVSS	high polyreactivity
QVQLVESGGGLVQAGGSLRLSCAASGRTFVANVKGWYRQAPGKERELVAGISTRGGRTYYADSVKGRFTISRDNAKNTVYLQMNSLKPEDTAVYYCAVRHYRDSTPRGAYQRYDYWGQGTQVTVSS	low polyreactivity
QVQQQESGGGLVQVGGSQRLSCAASGNIFYNYAMGWYRHAQGKEREFDATINHGTSINYADSVKGRFTISRDNAKNTVYLQMNSLKPEDTAVYYCAADLSWTDNLFYWGQGTQVTVSS	low polyreactivity

Sequence	polyreactivity (PSR sort gate)
QVQLVESGGGLVQAGGSLRLSCAASGFTFAGNAMGWYRQAPGKERELVAAISRRGGSTYYADSVKGRFTISRDNAKNTVYLQMNSLKPEDTAVYYCAAVYPYDYDYWGQGTQVTVSS	high polyreactivity
QVQLVESGGGLVQAGGSLRLSCAASGFIFSLYAMGWYRQAPGTERELVAAISKRGGSTNYADSVKGRFTISRDNAKNTVYLQMNSLKPEDTAVYYCAKARPGFLYDHWGQGTQVTVSS	high polyreactivity
QVQLVESGGGLVQAGGSLRLSCAASGSIFTRNAMGWYITAPGKEREFVAAISSSGVSTYYADSVKGRLTISRDNAKNTVYLQMNSLKPEDTAVYYCAARWGTKSGRYDYWGQGTQVTVSS	high polyreactivity
QVQLVESGGGLVQAGGSLRLSCAASGFTSGRNTMGWYRQAPGKERELVAAISSSGGRTYYADSVKGRFTISRDNAKKTVYLQKHRLKAEDPAVYYCNVAGAIKRTIGDYEYWGQGTQVTVSS	high polyreactivity
QVQLVESGGGLVQAGGSLRLSCAASGNNFWWNDMGWYRHAPGKERELVAAISWRGSSTYYADSVKGRFTISRDNAKYTVYLQMNSLKPEDSAVYYCAKPDRTCWLDGDYWGQGTQVTVSS	low polyreactivity
QVQLVESGGGLVQAGGSLRLSCAASGRTFGYYAMGWYRTAPGKERELVAAIRSTGSTNYADSVKGRFTISRDNAKNTVYLQMNSLKPEDTAVYYCNAKRRFRYDYWGQGTQVTVSS	low polyreactivity
QVQLVESGGGLVQAGGSLRLSCAASGRTFKYYAMGWYRQAPGKERELVAAITYRDRTYYADSVKGRFTISRDNAKNTVYLQMNSLKPEDTAVYYCAAQHYGSDGRGFDYWGQGTQVTVSS	low polyreactivity
QDQLVESGGGLVQAGGSLRLSCAASGSIFARYAMGWYRQAPGKERELVAAINSTVSTNYADSVKGRFTISRDNAKNTVYLQMNSLKPEDTAVYYCAVDIVRGGRDSWGQGTQVTVSS	low polyreactivity
QVQLVESGGGLVQAGGSLRLSCAASGRTFPYYTMGWYRQAPGKERELVAAISRSGGSTYYADSVKGRFTISRDNAKNTVYLQMNSLKPEDTAVYYCAAGIYRYNRYWGYNYWGQGTQVTVSS	high polyreactivity
QVQLVESGGGLVQAGGSLRLSCAASGSTFDYYAMGWYRQAPGKERELVATISYSDGTTYYADSVKGRFTISRDNAKNTVYLQMNSLKPEDTAVYYCAADTYVYEEQNVWRMDYWGQGTQVTVSS	low polyreactivity
QVQLVESGGGLVQAGGSLRLSCAASGSTFGTNAMGWYRQAPGKERELVAAISTGGSTYYADSVKGRFTISRDNAKNTVYLQMNSLKPEDNAVYYCAALADYVRRASDYWGQGTQVTVSS	low polyreactivity
QDQLVESGGGLVQAGGSLRLSCAASGSTFVANDMGWYRQAPGKERELVASISDGSSTYADSVKGRFTISRDNAKNTVYLQMNSLKPEDTAVYYCAKDGSLDAQSYDYDYWGQGTQVTVSS	low polyreactivity
QDQLVESGGGLVQAGGSLRLRCAASGSIFGGYAMGWYRQAPGKERELVDAISSGGTTNYADSVMGRFTISRDNAKNTVYLQMNSLKQEDRAVYYCAREYGTTYQSVQVKFIQLDYWGQGTLVTVSS	low polyreactivity
QDQLVESGGGLVQAGGSLRLSCAASGRTFGVNAMGWYRQAPGKERELVASIRWNGGSTYYADSVKGRFTISRDNAKNTVYFQMNSLKPEDTAVYYCNAVRRYRSREFDYWGQGTQVNVSS	low polyreactivity
QVQLVESGGGLVQAGGSLRLSCAASGSIFDNAMGWYRQAPGKERELVASIDQSGGSTYYADSVKGRFTISRDNAKNTVYLQMNSLKPEDTAVYYCAADSFTGYPYEMDYWGQGTQVTVSS	low polyreactivity
QVQLVESGGGLVQAGGSLRLICAASGITFSTYTMGWYRQAPRKEREFVAAISSRGGSTYYADSVKGRFTISRDNAKNTAYLQMNRLIPEVTAVYYCAAALVAPFDYWVQGTQVTVSS	high polyreactivity
QQQLVESDVGLDQAGRSHRLSCAASGFIFAPNAMGWYRQAPGKERELVAAITYRGGGTYYADSVKGRFTISRDNAKNTVYLQMNSLKPEDTAVYYCAAGYDSYYRGSYNYWGQGTQVTVSS	high polyreactivity
QVQLVESGGGLVQAGGSLRLSCAASGSTFVWKAMGWYRQAPGKERELVAAISSSGGITYYADSVKGRFTISRDNAKNPVYLQMNSLKPEDTAVYYCAAERDDDWVNYWGQGTQVTVSS	low polyreactivity
QVQLIESGGGLVQAGGSLRLSCAASGRTFGRYTMGWYRQAPGKERELVADISGTGGRTYYSDSVKGRFTISRDNAKNTVYLQMNSLKPEDTAVYYCNAVLHRRFDYWGQGTQVTVSS	high polyreactivity
QVQLVESGGGLVQAGGSLRLSCAASGRIFAHYAMGWYRQAPGKERELVAAIRRSGVSTYYADSVKGRFTSSRDNAKNTVYLQMNSLKPEDTAVYYCNARAYVSPYDYWGQGTQVTVSS	low polyreactivity
QVQLVESGGGLVQARGSLRLSCAASGFTFYFYAMGWYRQATGKETELVAAISRSGSRTYYADSVKGRFTISRDNAKNTVYLQMNSLKPVDTAVYYCARVRPRGLYFVLHYDYWGQGTQVTVSS	high polyreactivity
